Experimental data published in PMC9160021, “Artificial intelligence-assisted cryoEM structure of Bfr2-Lcp5 complex observed in the yeast small subunit processome” (Communications Biology, 2022).

T1: Enp2 (S. cerevisiae (endogenous in yeast …, UniProt P48234 1-707))
T1 construct: Enp2, S. cerevisiae, endogenous in the Δpih1-90S; its β-propeller is named as the part that Bfr2 touches; Endogenous protein of the 90S particle
T1 sequence (looked up): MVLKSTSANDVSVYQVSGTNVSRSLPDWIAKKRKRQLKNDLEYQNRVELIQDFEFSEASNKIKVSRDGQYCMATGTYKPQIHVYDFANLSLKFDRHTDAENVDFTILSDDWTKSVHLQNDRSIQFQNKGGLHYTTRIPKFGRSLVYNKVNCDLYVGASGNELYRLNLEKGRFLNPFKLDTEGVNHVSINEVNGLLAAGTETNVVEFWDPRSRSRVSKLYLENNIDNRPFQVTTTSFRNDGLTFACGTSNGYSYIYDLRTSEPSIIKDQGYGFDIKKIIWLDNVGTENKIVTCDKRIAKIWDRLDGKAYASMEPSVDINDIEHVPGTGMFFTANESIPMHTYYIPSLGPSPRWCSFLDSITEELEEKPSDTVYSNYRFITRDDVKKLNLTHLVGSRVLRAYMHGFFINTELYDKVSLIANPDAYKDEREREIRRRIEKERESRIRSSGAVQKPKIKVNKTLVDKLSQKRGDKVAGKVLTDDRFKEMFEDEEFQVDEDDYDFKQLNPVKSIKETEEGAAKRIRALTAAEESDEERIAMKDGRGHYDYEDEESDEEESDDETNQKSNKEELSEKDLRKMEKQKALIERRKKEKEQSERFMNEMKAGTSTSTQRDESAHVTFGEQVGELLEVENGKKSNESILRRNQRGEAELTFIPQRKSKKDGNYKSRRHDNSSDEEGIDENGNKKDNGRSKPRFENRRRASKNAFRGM

T2: MBP-Bfr2(266–432) (S. cerevisiae (genomic DNA of BY4741 …, UniProt Q06631 266-432))
T2 construct: source: E. coli Rosetta(DE3); in lysate (pull-down in cell) and purified (amylose, monoQ, gel filtration)
T2 sequence (looked up): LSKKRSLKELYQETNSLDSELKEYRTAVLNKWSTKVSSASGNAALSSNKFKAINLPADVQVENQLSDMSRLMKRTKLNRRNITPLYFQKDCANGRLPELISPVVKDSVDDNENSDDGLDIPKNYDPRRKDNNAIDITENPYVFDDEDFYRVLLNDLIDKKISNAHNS

B1: Lcp5 (natural protein, UniProt P40079 1-357, looked up)
chain: MSELNALLKDINGSLTATSESLERLSGIYSNSATDEIPESNQLHEHLFYDAKKPAEKVSLLSLKNGSMLGYINSLLMLIGNRLDDECKDPSAMDARERSIQHRVVLERGVKPLEKKLAYQLDKLTRAYVKMEKEYKDAEKRALEKSTLVNHSGNDDSEDDESSEDEIAYRPNTSGIINTNKKSSAYRVEETAKQENGEENDDNETGVYKPPKITAVLPPQQTHFEDRFDAREHKDRSNKSRMQAMEEYIRESSDQPDWSASIGADIVNHGRGGIKSLRDTEKERRVTSFEEDNFTRLNITNKAEKRKQKQRERNARMNVIGGEDFGIFSSKRKLEDSTSRRGAKKTRSAWDRAQRRL
notes: Lcp5, S. cerevisiae, endogenous in the Δpih1-90S; the newly modelled N-terminal domain holds residues 1–141; Endogenous protein of the 90S particle; only part of it is modelled in the map
B2: Bfr2 (natural protein, UniProt Q06631 1-534, looked up)
chain: MEKSLADQISDIAIKPVNKDFDIEDEENASLFQHNEKNGESDLSDYGNSNTEETKKAHYLEVEKSKLRAEKGLELNDPKYTGVKGSRQALYEEVSENEDEEEEEEEEEEKEEDALSFRTDSEDEEVEIDEEESDADGGETEEAQQKRHALSKLIQQETKQAINKLSQSVQRDASKGYSILQQTKLFDNIIDLRIKLQKAVIAANKLPLTTESWEEAKMDDSEETKRLLKENEKLFNNLFNRLINFRIKFQLGDHITQNEEVAKHKLSKKRSLKELYQETNSLDSELKEYRTAVLNKWSTKVSSASGNAALSSNKFKAINLPADVQVENQLSDMSRLMKRTKLNRRNITPLYFQKDCANGRLPELISPVVKDSVDDNENSDDGLDIPKNYDPRRKDNNAIDITENPYVFDDEDFYRVLLNDLIDKKISNAHNSESAAITITSTNARSNNKLKKNIDTKASKGRKLNYSVQDPIANYEAPITSGYKWSDDQIDEFFAGLLGQRVNFNENEDEEQHARIENDEELEAVKNDDIQIFG
notes: Bfr2, S. cerevisiae, endogenous in the Δpih1-90S; the whole protein is 1–534; Endogenous protein of the 90S particle; only part of it is modelled in the map
B3: His-Lcp5(1–160) (domain or fragment, S. cerevisiae, UniProt P40079 1-160, looked up)
chain: MSELNALLKDINGSLTATSESLERLSGIYSNSATDEIPESNQLHEHLFYDAKKPAEKVSLLSLKNGSMLGYINSLLMLIGNRLDDECKDPSAMDARERSIQHRVVLERGVKPLEKKLAYQLDKLTRAYVKMEKEYKDAEKRALEKSTLVNHSGNDDSEDD
notes: Lcp5, S. cerevisiae, residues 1–160, polyhistidine tagged; The methods describe only the cloning of the untagged Lcp5(1–160); also called polyhistidine tagged Lcp5 fragment 1–160; source: bacteria expression host, purified

How the values were obtained:
Details in all cases: both partners purified
[1] = target: B2; assay: cryo-EM structure; Δpih1-90S purified from yeast by tandem affinity (Pwp2-TAP on IgG Sepharose, Kre33-TwinStrep on Strep-Tactin); 3.99 Å overall, 5.04 Å for the head (5' domain) where Bfr2-Lcp5 lies; Bfr2-Lcp5 model placed with the aid of AlphaFold
[2] = target: T1, Enp2; assay: as above
[3] = target: T2, MBP-Bfr2(266–432); assay: pull-down; in vitro: purified MBP, MBP-Bfr2(360–432) or MBP-Bfr2(266–432) as bait with purified His-Lcp5(1–160)

Binder: B1
- binding result [1]: binds

Binder: B2
- binding result [2]: binds

Binder: B3
- binding result [3]: binds
